The results in this text go back to publication PMC8440770.

This assay has as its target spMSP1D1 (MSP1D1 with SpyCatcher at the N-terminus and SpyTag at the C-terminus, circularized). Put plainly: cross-linking + other: fluorescence fluctuation spectroscopy; spMSPs in PC lipid nanodiscs (cNDs); cross-linking: cNDs 0.5 µM in PBS with EGS, room temperature 1 h, SDS-PAGE; fluctuation spectroscopy: molecular brightness of FITC-labeled spMSPs and cNDs (100 pM) in reconstitution buffer by photon counting histogram.

In the case of “spMSP1D1 (MSP1D1 with SpyCatcher at the N-terminus and SpyTag at the C-terminus, circularized)”, the stoichiometry N – broadly, a count of units in the complex or per binding partner – is 2.
